Measurements: publication PMC4787809 (Nucleic Acids Research, 2015)
Values belong to the molecule of their own block, whether it stands above or below them.

Tests used:
[1] = target: Cascade (Cas7-tagged prep) (Escherichia coli) (UniProt Q46901+P76632+Q46899+Q46898+Q46897); assay: EMSA
[2] = target: T1, Cse1 (tail subunit of E. coli Cascade) (Escherichia coli K12, UniProt Q46901 1-502); assay: crystal structure
T1 sequence: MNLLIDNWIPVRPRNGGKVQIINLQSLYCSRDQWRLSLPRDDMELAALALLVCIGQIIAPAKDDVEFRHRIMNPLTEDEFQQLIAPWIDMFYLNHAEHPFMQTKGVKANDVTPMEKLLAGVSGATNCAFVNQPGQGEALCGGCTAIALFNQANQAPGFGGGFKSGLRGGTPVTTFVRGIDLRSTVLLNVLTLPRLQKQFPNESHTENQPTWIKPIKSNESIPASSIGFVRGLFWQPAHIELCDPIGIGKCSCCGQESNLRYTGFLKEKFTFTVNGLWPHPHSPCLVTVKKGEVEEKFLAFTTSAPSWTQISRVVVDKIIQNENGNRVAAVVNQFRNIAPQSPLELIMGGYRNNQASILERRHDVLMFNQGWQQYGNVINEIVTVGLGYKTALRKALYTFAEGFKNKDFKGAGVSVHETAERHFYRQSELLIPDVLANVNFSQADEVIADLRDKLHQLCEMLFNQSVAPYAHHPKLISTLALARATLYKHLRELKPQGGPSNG

[3] = target: the molecule itself; assay: crystal structure
[4] = target: T2, Cascade (Cse2-tagged prep) (Escherichia coli, UniProt Q46901;P76632;Q46899;Q46898;Q46897 1-502;1-160;1-363;1-224;1-199); assay: EMSA
T2 sequence 1: T1 sequence
T2 sequence 2: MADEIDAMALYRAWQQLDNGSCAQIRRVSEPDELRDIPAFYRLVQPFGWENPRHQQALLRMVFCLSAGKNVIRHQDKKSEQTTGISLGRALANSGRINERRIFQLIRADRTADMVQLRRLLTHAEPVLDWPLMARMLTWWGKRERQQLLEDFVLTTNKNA
T2 sequence 3: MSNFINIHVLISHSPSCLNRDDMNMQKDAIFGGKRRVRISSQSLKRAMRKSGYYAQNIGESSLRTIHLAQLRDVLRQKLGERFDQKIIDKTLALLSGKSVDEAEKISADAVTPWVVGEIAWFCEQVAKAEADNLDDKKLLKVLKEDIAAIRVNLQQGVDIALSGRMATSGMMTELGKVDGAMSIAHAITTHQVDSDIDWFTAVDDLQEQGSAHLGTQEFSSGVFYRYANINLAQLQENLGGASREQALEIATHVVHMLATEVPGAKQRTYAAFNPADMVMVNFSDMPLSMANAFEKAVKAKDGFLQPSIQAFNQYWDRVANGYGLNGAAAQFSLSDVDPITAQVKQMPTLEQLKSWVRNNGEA
T2 sequence 4: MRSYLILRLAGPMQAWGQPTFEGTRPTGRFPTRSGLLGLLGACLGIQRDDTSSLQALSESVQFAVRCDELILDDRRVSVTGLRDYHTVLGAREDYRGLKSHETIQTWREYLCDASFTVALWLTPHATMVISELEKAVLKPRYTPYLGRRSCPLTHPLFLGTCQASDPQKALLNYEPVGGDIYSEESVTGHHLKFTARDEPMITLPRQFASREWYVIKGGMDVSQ
T2 sequence 5: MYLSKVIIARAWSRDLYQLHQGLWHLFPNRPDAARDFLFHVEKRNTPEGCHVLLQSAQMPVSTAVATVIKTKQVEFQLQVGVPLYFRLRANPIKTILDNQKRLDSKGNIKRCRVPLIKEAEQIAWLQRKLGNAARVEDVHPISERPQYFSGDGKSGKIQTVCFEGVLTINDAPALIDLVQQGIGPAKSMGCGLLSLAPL

Molecule: GCGCGGCAAGCCGAAAGCATGACGGTATTGTTCAGATCCTGGCTTGCCAACAGTGATTGCTCGGGAGTCGCT (double strand) [72 bp dsDNA target (+21), CAT PAM]
Kd [1]: 13.3 nM

binding result [2]: binds
B1: Cas5e (subunit of E. coli Cascade) (natural protein)
chain: T2 sequence 4

B2: Cas7 as in the crystallised Cascade (natural protein)
chain: T2 sequence 3
stoichiometry N [3]: 6

B3: 72 bp dsDNA target (+21), CAT PAM (dsDNA)
DNA 1: GCGCGGCAAGCCGAAAGCATGACGGTATTGTTCAGATCCTGGCTTGCCAACAGTGATTGCTCGGGAGTCGCT
DNA 2: AGCGACTCCCGAGCAATCACTGTTGGCAAGCCAGGATCTGAACAATACCGTCATGCTTTCGGCTTGCCGCGC
Kd [4]: 1.14 nM
